T1: KaiCDE (KaiC mutant with aspartate and glutamate residues at positions 431 and 432) (Synechococcus elongatus PCC 7942, UniProt Q79PF4 1-519, aspartate at position 431 | glutamate at position 432)
T1 construct: KaiC, circadian clock protein of Synechococcus elongatus PCC 7942, mimic of hyperphosphorylated KaiC; source: Escherichia coli, Strep-tagged recombinant protein, purified
T1 sequence (looked up): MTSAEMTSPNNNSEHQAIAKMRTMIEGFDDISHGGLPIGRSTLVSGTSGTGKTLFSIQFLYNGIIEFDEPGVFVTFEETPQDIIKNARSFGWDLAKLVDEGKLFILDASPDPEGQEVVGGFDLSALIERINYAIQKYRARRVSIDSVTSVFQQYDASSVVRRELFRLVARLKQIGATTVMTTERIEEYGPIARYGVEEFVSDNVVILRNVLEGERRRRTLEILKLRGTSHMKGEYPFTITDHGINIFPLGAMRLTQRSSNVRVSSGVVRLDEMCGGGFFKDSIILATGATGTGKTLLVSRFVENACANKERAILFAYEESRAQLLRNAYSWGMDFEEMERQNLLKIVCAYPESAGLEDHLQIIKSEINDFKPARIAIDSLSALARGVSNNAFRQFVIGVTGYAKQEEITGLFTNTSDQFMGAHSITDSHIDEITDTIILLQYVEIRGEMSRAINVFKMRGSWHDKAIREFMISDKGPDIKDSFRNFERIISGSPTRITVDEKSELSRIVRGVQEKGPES

T2: wild-type KaiC (Synechococcus elongatus PCC 7942, UniProt Q79PF4 1-519)
T2 construct: KaiC, circadian clock protein of Synechococcus elongatus PCC 7942; also called KaiCWT; source: Escherichia coli, Strep-tagged recombinant protein, purified
T2 sequence (looked up): T1 sequence (looked up) with D431S, E432T

B1: KaiB (natural protein, Synechococcus elongatus PCC 7942, UniProt Q79PF5 1-102, looked up)
chain: MSPRKTYILKLYVAGNTPNSVRALKTLKNILEVEFQGVYALKVIDVLKNPQLAEEDKILATPTLAKVLPLPVRRIIGDLSDREKVLIGLDLLYGELQDSDDF
notes: KaiB, circadian clock protein of Synechococcus elongatus PCC 7942; printed mass of KaiB 14 kDa; Six KaiB protomers stand in the complex with the KaiC hexamer; also called h-KaiB; source: Escherichia coli, Strep-tagged recombinant protein, purified
B2: KaiCDT (KaiC phospho-mimicking mutant with aspartate at Ser431) (natural protein, Synechococcus elongatus PCC 7942, UniProt Q79PF4 1-519, looked up)
chain: T1 sequence (looked up) with E432T
notes: KaiC, circadian clock protein of Synechococcus elongatus PCC 7942, mono-phosphorylation mimic at Ser431; 72d-KaiCDT is the same protein, 72.2% deuterated, used in iCM-SANS; Printed mass of KaiC 65 kDa; also called h-KaiCDT; 72d-KaiCDT

Changes are numbered by the printed parent chain.

In data set [1] the target is B2. Put plainly: native MS; nanoflow ESI-MS under non-denaturing conditions; 20 uM KaiCDT mixed with 3.3, 10, 20 and 30 uM KaiB (monomer), 30 °C for 4 h, exchanged into 150 mM ammonium acetate pH 7.5. Particulars: both partners purified.
Data set [2] addresses T1, KaiCDE (KaiC mutant with aspartate and …). Put plainly: native gel or EMSA; BN-PAGE (NativePAGE Novex Bis-Tris gel); KaiC variants incubated with KaiB at 30 °C for 12 h. Particulars: both partners purified. On the technique in general: Mobility shift assays separate free from complexed probe on a gel.
The target of the next data set is T2, wild-type KaiC. The description is as above. The conditions noted are these: both partners purified.
Data set [3] concerns the molecule itself. Put plainly: native MS; nanoflow ESI-MS under non-denaturing conditions; 20 uM KaiCDT mixed with 3.3, 10, 20 and 30 uM KaiB (monomer), 30 °C for 4 h, exchanged into 150 mM ammonium acetate pH 7.5.

For the molecule B1, the “stoichiometry N” value in data set [1] was 6 KaiB protomers per KaiC hexamer. For the same molecule, the binding result (in data set [2]; in the data set with wild-type KaiC) was “binds” throughout.

As to B2, in data set [3], the “stoichiometry N” value was determined as 6.

For orientation: stoichiometry N means the number of molecules, sites or subunits per partner or assembly.

These data come from publication PMC5067715, “Structural characterization of the circadian clock protein complex composed of KaiB and KaiC by inverse contrast-matching small-angle neutron scattering” (Scientific Reports, 2016).
